Results from patent US20260242735A1 (UNIVERSIT T BASEL, published 2026).

Tests used:
human CD33 W22T = human CD33 W22T (human, UniProt P20138 18-364); experiment: flow cytometry, transfected cells
human CD33 W22P [1] = target: human CD33 W22P (human, UniProt P20138 18-364); experiment: flow cytometry, transfected cells
Target sequence in this assay (P20138 18-364 W22P limits assumed): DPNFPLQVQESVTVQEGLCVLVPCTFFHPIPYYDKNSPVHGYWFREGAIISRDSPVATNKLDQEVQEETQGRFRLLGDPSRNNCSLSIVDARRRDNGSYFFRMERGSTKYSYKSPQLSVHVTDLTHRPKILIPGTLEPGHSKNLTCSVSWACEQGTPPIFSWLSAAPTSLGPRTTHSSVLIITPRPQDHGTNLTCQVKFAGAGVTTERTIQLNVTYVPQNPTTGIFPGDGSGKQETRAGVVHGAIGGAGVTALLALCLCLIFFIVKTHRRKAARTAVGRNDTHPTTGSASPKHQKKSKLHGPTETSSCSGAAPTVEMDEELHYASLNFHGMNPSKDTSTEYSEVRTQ

human CD33 W22E [2] = target: human CD33 W22E (human, UniProt P20138 18-364); experiment: flow cytometry, transfected cells
Target sequence in this assay (P20138 18-364 W22E limits assumed): as the sequence (P20138 18-364 W22P limits assumed) above, with P5E counted along it

human CD33 W22R = human CD33 W22R (human, UniProt P20138 18-364); experiment: flow cytometry, transfected cells
human CD33 N20S = human CD33 N20S (human, UniProt P20138 18-364); experiment: flow cytometry, mutant on cells, IgG
Protocol: (§1) An alanine scan on human CD33 was performed to the determine the residues on CD33 that are involved in binding to the antibodies investigated. […] Briefly, a mutation library of CD33 was created by high-throughput, site-directed mutagenesis. Each residue was individually mutated to alanine, with alanine codons mutated to serine. The mutant library was arrayed in 384-well microplates and transiently transfected into HEK293-T. Following transfection, cells were incubated with the indicated antibodies (IgG or Fab) at concentrations pre-determined using an independent immunofluorescence titration curve on wild type CD33. […] Binding of each antibody to each mutant clone was determined in duplicates. For each point, background fluorescence was subtracted from the raw data, which were then normalized to antibody reactivity with wild type CD33.
(§2) Antibodies were screened for binding to the human CD33 variants in IgG format. […] For each mutation, background fluorescence was subtracted from the raw data, which were then normalized to antibody reactivity with wild-type CD33.

human CD33 N20Y = human CD33 N20Y (human, UniProt P20138 18-364); experiment: flow cytometry, mutant on cells, IgG
Protocol: as §1, §2

human CD33 N20W = human CD33 N20W (human, UniProt P20138 18-364); experiment: flow cytometry, mutant on cells, IgG
Protocol: as §1, §2

human CD33 N20D = human CD33 N20D (human, UniProt P20138 18-364); experiment: flow cytometry, mutant on cells, IgG
Protocol: as §1, §2

human CD33 N20K = human CD33 N20K (human, UniProt P20138 18-364); experiment: flow cytometry, mutant on cells, IgG
Protocol: as §1, §2

human CD33 N20V = human CD33 N20V (human, UniProt P20138 18-364); experiment: flow cytometry, mutant on cells, IgG
Protocol: as §1, §2

human CD33 F21S = human CD33 F21S (human, UniProt P20138 18-364); experiment: flow cytometry, mutant on cells, IgG
Protocol: as §1, §2

human CD33 W22G = human CD33 W22G (human, UniProt P20138 18-364); experiment: flow cytometry, mutant on cells, IgG
Protocol: as §1, §2

human CD33 W22S = human CD33 W22S (human, UniProt P20138 18-364); experiment: flow cytometry, mutant on cells, IgG
Protocol: as §1, §2

human CD33 W22L = human CD33 W22L (human, UniProt P20138 18-364); experiment: flow cytometry, mutant on cells, IgG
Protocol: as §1, §2

human CD33 W22P [3] = target: human CD33 W22P (human, UniProt P20138 18-364); experiment: flow cytometry, mutant on cells, IgG
Target sequence in this assay (P20138 18-364 W22P limits assumed): as the sequence (P20138 18-364 W22P limits assumed) above
Protocol: as §1, §2

human CD33 W22Q = human CD33 W22Q (human, UniProt P20138 18-364); experiment: flow cytometry, mutant on cells, IgG
Protocol: as §1, §2

human CD33 W22E [4] = target: human CD33 W22E (human, UniProt P20138 18-364); experiment: flow cytometry, mutant on cells, IgG
Target sequence in this assay (P20138 18-364 W22E limits assumed): as the sequence (P20138 18-364 W22P limits assumed) above, with P5E counted along it
Protocol: as §1, §2

human CD33 L23M = human CD33 L23M (human, UniProt P20138 18-364); experiment: flow cytometry, mutant on cells, IgG
Protocol: as §1, §2

human CD33 Q24T = human CD33 Q24T (human, UniProt P20138 18-364); experiment: flow cytometry, mutant on cells, IgG
Protocol: as §1, §2

human CD33 Q24I = human CD33 Q24I (human, UniProt P20138 18-364); experiment: flow cytometry, mutant on cells, IgG
Protocol: as §1, §2

human CD33 Q24L = human CD33 Q24L (human, UniProt P20138 18-364); experiment: flow cytometry, mutant on cells, IgG
Protocol: as §1, §2

human CD33 Q24N = human CD33 Q24N (human, UniProt P20138 18-364); experiment: flow cytometry, mutant on cells, IgG
Protocol: as §1, §2

human CD33 V25M = human CD33 V25M (human, UniProt P20138 18-364); experiment: flow cytometry, mutant on cells, IgG
Protocol: as §1, §2

human CD33 T42K = human CD33 T42K (human, UniProt P20138 18-364); experiment: flow cytometry, mutant on cells, IgG
Protocol: as §1, §2

human CD33 T42P = human CD33 T42P (human, UniProt P20138 18-364); experiment: flow cytometry, mutant on cells, IgG
Protocol: as §1, §2

human CD33 F43V = human CD33 F43V (human, UniProt P20138 18-364); experiment: flow cytometry, mutant on cells, IgG
Protocol: as §1, §2

human CD33 F44V = human CD33 F44V (human, UniProt P20138 18-364); experiment: flow cytometry, mutant on cells, IgG
Protocol: as §1, §2

human CD33 F44Q = human CD33 F44Q (human, UniProt P20138 18-364); experiment: flow cytometry, mutant on cells, IgG
Protocol: as §1, §2

human CD33 F44E = human CD33 F44E (human, UniProt P20138 18-364); experiment: flow cytometry, mutant on cells, IgG
Protocol: as §1, §2

human CD33 H45Y = human CD33 H45Y (human, UniProt P20138 18-364); experiment: flow cytometry, mutant on cells, IgG
Protocol: as §1, §2

human CD33 P46S = human CD33 P46S (human, UniProt P20138 18-364); experiment: flow cytometry, mutant on cells, IgG
Protocol: as §1, §2

human CD33 D18N = human CD33 D18N (human, UniProt P20138 19-364); experiment: flow cytometry, mutant on cells, IgG
Protocol: as §1, §2

human CD33 P46I = human CD33 P46I (human, UniProt P20138 18-364); experiment: flow cytometry, mutant on cells, IgG
Protocol: as §1, §2

human CD33 P46R = human CD33 P46R (human, UniProt P20138 18-364); experiment: flow cytometry, mutant on cells, IgG
Protocol: as §1, §2

human CD33 P46Y = human CD33 P46Y (human, UniProt P20138 18-364); experiment: flow cytometry, mutant on cells, IgG
Protocol: as §1, §2

human CD33 I47S = human CD33 I47S (human, UniProt P20138 18-364); experiment: flow cytometry, mutant on cells, IgG
Protocol: as §1, §2

human CD33 I47T = human CD33 I47T (human, UniProt P20138 18-364); experiment: flow cytometry, mutant on cells, IgG
Protocol: as §1, §2

human CD33 P19D = human CD33 P19D (human, UniProt P20138 18-364); experiment: flow cytometry, mutant on cells, IgG
human CD33 P19D, sequence (P20138 18-364 P19D limits assumed): as the sequence (P20138 18-364 W22P limits assumed) above, with P2D, P5W counted along it
Protocol: as §1, §2

human CD33 W22T, sequence (P20138 18-364 W22T limits assumed): as the sequence (P20138 18-364 W22P limits assumed) above, with P5T counted along it
human CD33 W22R, sequence (P20138 18-364 W22R limits assumed): as the sequence (P20138 18-364 W22P limits assumed) above, with P5R counted along it
human CD33 P46R, sequence (P20138 18-364 P46R limits assumed): as the sequence (P20138 18-364 W22P limits assumed) above, with P5W, P29R counted along it
human CD33 I47S, sequence (P20138 18-364 I47S limits assumed): as the sequence (P20138 18-364 W22P limits assumed) above, with P5W, I30S counted along it
human CD33 N20K, sequence (P20138 18-364 N20K limits assumed): as the sequence (P20138 18-364 W22P limits assumed) above, with N3K, P5W counted along it
human CD33 T42K, sequence (P20138 18-364 T42K limits assumed): as the sequence (P20138 18-364 W22P limits assumed) above, with P5W, T25K counted along it
human CD33 W22L, sequence (P20138 18-364 W22L limits assumed): as the sequence (P20138 18-364 W22P limits assumed) above, with P5L counted along it
human CD33 W22S, sequence (P20138 18-364 W22S limits assumed): as the sequence (P20138 18-364 W22P limits assumed) above, with P5S counted along it
human CD33 F21S, sequence (P20138 18-364 F21S limits assumed): as the sequence (P20138 18-364 W22P limits assumed) above, with F4S, P5W counted along it
human CD33 N20V, sequence (P20138 18-364 N20V limits assumed): as the sequence (P20138 18-364 W22P limits assumed) above, with N3V, P5W counted along it

B1: Refmab #3 (antibody, human IgG1, V domains shown)
VH: QVQLVQSGAEVKKPGSSVKVSCKASGYTFTDYNMHWVRQAPGQGLEWIGYIYPYNGGTGYNQKFKSKATITADESTNTAYMELSSLRSEDTAVYYCARGRPAMDYWGQGTLVTVSS
VL: DIQMTQSPSSLSASVGDRVTITCRASESVDNYGISFMNWFQQKPGKAPKLLIYAASNQGSGVPSRFSGSGSGTDFTLTISSLQPDDFATYYCQQSKEVPWTFGQGTKVEIK
Human CD33 W22T
  binding result: no binding (tested: below 20%)
Human CD33 W22P [1]
  binding result: no binding (tested: below 20%)
Human CD33 W22E [2]
  binding result: no binding (tested: below 20%)
Human CD33 W22R
  binding result: no binding (tested: below 20%)

B2: Refmab #1 (antibody, human IgG1, V domains shown)
VH: EVQLVQSGAEVKKPGSSVKVSCKASGYTITDSNIHWVRQAPGQSLEWIGYIYPYNGGTDYNQKFKNRATLTVDNPTNTAYMELSSLRSEDTAFYYCVNGNPWLAYWGQGTLVTVSS
VL: DIQLTQSPSTLSASVGDRVTITCRASESLDNYGIRFLTWFQQKPGKAPKLLMYAASNQGSGVPSRFSGSGSGTEFTLTISSLQPDDFATYYCQQTKEVPWSFGQGTKVEVK
notes: also called hP67.6; Absolute Antibody Cat. No. Ab00283-10.0
Human CD33 W22T
  binding result: no binding (tested: below 20%)
Human CD33 W22P [1]
  binding result: no binding (tested: below 20%)
Human CD33 W22E [2]
  binding result: no binding (tested: below 20%)
Human CD33 W22R
  binding result: no binding (tested: below 20%)

B3: Refmab #6 (antibody, human IgG1, V domains shown)
VH: QVQLQQPGAEVVKPGASVKMSCKASGYTFTSYYIHWIKQTPGQGLEWVGVIYPGNDDISYNQKFQGKATLTADKSSTTAYMQLSSLTSEDSAVYYCAREVRLRYFDVWGQGTTVTVSS
VL: EIVLTQSPGSLAVSPGERVTMSCKSSQSVFFSSSQKNYLAWYQQIPGQSPRLLIYWASTRESGVPDRFTGSGSGTDFTLTISSVQPEDLAIYYCHQYLSSRTFGQGTKLEIK
Human CD33 W22T
  binding result: no binding (tested: below 20%)
Human CD33 W22P [1]
  binding result: no binding (tested: below 20%)
Human CD33 W22E [2]
  binding result: no binding (tested: below 20%)
Human CD33 W22R
  binding result: no binding (tested: below 20%)

B4: Refmab #4 (antibody, human IgG1, V domains shown)
VH: QVQLVQSGAEVKKPGESVKVSCKASGYTFTNYGMNWVKQAPGQGLEWMGWINTYTGEPTYADKFQGRVTMTTDTSTSTAYMEIRNLGGDDTAVYYCARWSWSDGYYVYFDYWGQGTSVTVSS
VL: DIVMTQSPDSLTVSLGERTTINCKSSQSVLDSSTNKNSLAWYQQKPGQPPKLLLSWASTRESGIPDRFSGSGSGTDFTLTIDSPQPEDSATYYCQQSAHFPITFGQGTRLEIK
notes: Tested in IgG format; human IgG1 Fc silent (PG-LALA)
Human CD33 N20S
  Mean % WT Binding: 91.7 % WT binding
Human CD33 N20Y
  Mean % WT Binding: 25.7 % WT binding
Human CD33 N20W
  Mean % WT Binding: 52.1 % WT binding
Human CD33 N20D
  Mean % WT Binding: 91.3 % WT binding
Human CD33 N20K
  Mean % WT Binding: 102 % WT binding
Human CD33 N20V
  Mean % WT Binding: 118 % WT binding
Human CD33 F21S
  Mean % WT Binding: 118 % WT binding
Human CD33 W22G
  Mean % WT Binding: 105 % WT binding
Human CD33 W22S
  Mean % WT Binding: 103 % WT binding
Human CD33 W22L
  Mean % WT Binding: 108 % WT binding
Human CD33 W22P [3]
  Mean % WT Binding: 104 % WT binding
Human CD33 W22Q
  Mean % WT Binding: 111 % WT binding
Human CD33 W22E [4]
  Mean % WT Binding: 99.4 % WT binding
Human CD33 L23M
  Mean % WT Binding: 92.7 % WT binding
Human CD33 Q24T
  Mean % WT Binding: 97.2 % WT binding
Human CD33 Q24I
  Mean % WT Binding: 86.6 % WT binding
Human CD33 Q24L
  Mean % WT Binding: 97 % WT binding
Human CD33 Q24N
  Mean % WT Binding: 107 % WT binding
Human CD33 V25M
  Mean % WT Binding: 81.1 % WT binding
Human CD33 T42K
  Mean % WT Binding: 86 % WT binding
Human CD33 T42P
  Mean % WT Binding: 21.6 % WT binding
Human CD33 F43V
  Mean % WT Binding: 81.5 % WT binding
Human CD33 F44V
  Mean % WT Binding: 96.6 % WT binding
Human CD33 F44Q
  Mean % WT Binding: 102 % WT binding
Human CD33 F44E
  Mean % WT Binding: 112 % WT binding
Human CD33 H45Y
  Mean % WT Binding: 79.2 % WT binding
Human CD33 P46S
  Mean % WT Binding: 107 % WT binding
Human CD33 D18N
  Mean % WT Binding: 76 % WT binding
Human CD33 P46I
  Mean % WT Binding: 91 % WT binding
Human CD33 P46R
  Mean % WT Binding: 106 % WT binding
Human CD33 P46Y
  Mean % WT Binding: 26.5 % WT binding
Human CD33 I47S
  Mean % WT Binding: 90.1 % WT binding
Human CD33 I47T
  Mean % WT Binding: 82.4 % WT binding
Human CD33 P19D
  Mean % WT Binding: 94.8 % WT binding
